Assay [1] deals with T1, full length mouse DLL4 on overexpressing CHO or HEK293 cells (mouse, UniProt Q9JI71 27-686).
T1 construct: whole, on cells; also called CHO-mDLL4; mDLL4
The assay is described as follows: FMAT, hNotch1/Fc on CHO-mDLL4, periplasmic extract. The text has this: (§1) All calculations are based on the FL1 total signal which comprises the average of the fluorescence per well times the number of counts per well.

Assay [2] addresses T2, full length human DLL4 on overexpressing CHO or HEK293 cells (human, UniProt Q9NR61 27-685).
T2 construct: also called CHO-hDLL4; HEK293-hDII4
The assay is described as follows: FMAT, hNotch1/Fc on CHO-hDLL4, periplasmic extract.
Text: as §1

For assay [3], the target named is T3, recombinant human DLL4, C-terminally His-tagged extracellular domain (R&D Systems) (human, UniProt Q9NR61 25-522, biotinylated where used in competition ELISA, AlphaScreen and on SA chips).
T3 construct: also called rhDLL4; hDLL4; not shown: C-terminal His tag
T3 sequence (Q9NR61 25-522): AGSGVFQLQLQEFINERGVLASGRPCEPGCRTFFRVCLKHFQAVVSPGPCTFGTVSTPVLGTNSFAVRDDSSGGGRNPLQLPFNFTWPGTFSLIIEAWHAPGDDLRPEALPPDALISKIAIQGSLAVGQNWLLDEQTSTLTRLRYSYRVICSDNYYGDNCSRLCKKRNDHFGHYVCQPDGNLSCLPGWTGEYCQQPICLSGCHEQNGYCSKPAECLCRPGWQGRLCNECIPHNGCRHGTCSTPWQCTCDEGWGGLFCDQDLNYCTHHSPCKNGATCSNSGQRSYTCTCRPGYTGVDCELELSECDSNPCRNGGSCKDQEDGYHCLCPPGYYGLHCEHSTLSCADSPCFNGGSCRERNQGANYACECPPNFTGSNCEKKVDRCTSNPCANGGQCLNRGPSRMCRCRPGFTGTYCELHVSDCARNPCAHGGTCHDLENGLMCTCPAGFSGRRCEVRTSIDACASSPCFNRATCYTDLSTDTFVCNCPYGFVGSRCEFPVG
Briefly: competition ELISA, periplasmic extract.

T2 sequence (Q9NR61 27-685 limits assumed): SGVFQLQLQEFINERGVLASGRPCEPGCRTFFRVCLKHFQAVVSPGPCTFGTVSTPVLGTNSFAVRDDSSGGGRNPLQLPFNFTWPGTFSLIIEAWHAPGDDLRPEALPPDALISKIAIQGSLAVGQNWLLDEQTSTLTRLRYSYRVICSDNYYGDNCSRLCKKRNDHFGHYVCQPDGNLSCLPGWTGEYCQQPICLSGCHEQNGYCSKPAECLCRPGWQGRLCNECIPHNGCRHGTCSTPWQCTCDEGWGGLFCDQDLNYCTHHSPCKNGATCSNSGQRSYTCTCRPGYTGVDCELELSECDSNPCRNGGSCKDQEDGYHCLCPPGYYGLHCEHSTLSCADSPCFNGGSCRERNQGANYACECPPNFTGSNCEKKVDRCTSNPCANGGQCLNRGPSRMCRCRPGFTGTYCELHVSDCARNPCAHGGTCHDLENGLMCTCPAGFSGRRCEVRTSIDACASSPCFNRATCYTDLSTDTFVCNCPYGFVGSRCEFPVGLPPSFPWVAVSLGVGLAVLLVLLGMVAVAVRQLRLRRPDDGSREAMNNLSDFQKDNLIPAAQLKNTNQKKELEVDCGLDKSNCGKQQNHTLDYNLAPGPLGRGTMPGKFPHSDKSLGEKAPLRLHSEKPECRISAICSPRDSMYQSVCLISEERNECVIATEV
T1 sequence (Q9JI71 27-686): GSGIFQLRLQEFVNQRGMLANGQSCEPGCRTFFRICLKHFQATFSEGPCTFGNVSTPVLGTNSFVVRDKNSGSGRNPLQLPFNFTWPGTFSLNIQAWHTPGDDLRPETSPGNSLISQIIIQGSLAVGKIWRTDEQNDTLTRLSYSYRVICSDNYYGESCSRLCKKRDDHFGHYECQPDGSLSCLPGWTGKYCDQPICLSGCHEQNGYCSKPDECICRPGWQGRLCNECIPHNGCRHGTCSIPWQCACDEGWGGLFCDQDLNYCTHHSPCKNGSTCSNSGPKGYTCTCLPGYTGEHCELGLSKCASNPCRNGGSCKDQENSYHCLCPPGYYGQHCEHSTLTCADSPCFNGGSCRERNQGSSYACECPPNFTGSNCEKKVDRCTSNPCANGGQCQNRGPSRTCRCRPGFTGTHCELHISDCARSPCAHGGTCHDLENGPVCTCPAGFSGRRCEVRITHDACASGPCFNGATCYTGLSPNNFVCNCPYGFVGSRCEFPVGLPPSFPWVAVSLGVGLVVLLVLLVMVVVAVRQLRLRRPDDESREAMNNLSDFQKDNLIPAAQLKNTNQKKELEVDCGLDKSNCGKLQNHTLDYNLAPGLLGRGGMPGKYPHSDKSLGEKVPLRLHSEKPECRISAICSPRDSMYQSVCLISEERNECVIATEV

B1: DLLBII101F01 (VHH)
VHH: EVQLVESGGGLVQAGGSLRLSCAASGRTFSNYAMGWFRQAPGKEREFVAAISWSGGDTYYADSVKGRFTISRDNAKNTVCLQMNSLKPEDTAVYYCAASFQSGAAPGANFYDYWGQGTQVTVSS
notes: tested as periplasmic extract; also called DLLBII101F1; not shown: C-terminal c-myc tag and His6 tag
With B1, the “FMAT mDLL4 % inhibition” value in assay [1] came out at 78%. The “FMAT hDLL4 % inhibition” value in assay [2] is 85%.

B2: DLLBII102G04 (VHH)
VHH: EVQLMESGGGLVQPGGSLRLSCAASGFTFSSYAMSWVRQAPGKGLEWVSRITSGGRTTYRDSVKGRFTISRDNSKNTLYLQMNSLKPEDTALYYCAKARGDIDVYTLSDSRGQGTQVTVSS
notes: tested as periplasmic extract; also called DLLBII102G4; not shown: C-terminal c-myc tag and His6 tag
As to B2, the “FMAT mDLL4 % inhibition” value in assay [1] came to 82%. Also, the “FMAT hDLL4 % inhibition” value in assay [2] stood at 86%.

B3: DLLBII115A05 (VHH)
VHH: EVQLVESGGGLVQPGGSLRLSCAASGFTFGSYDMSWVRRSPGKGPEWVSSINSGGGSTYYADFVKGRFTISRDNAKNTLYLQMNSLKPEDTAVYYCAADRYIRARQGDYWGAYEYDYWGQGTQVTVSS
notes: also called DLLBII115A5; 115A5; not shown: C-terminal c-myc tag and His6 tag
With B3, the “FMAT mDLL4 % inhibition” value in assay [1] is 84%. In assay [2], the “FMAT hDLL4 % inhibition” value is 74%.

B4: DLLBII6B11 (VHH)
VHH: EVQLVESEGGLVQAGGSLRLSCAASGSTFSSYAMGWYRQAPGKQRELVAVISNGGITNYPNSVKGRFTISRDNAKNTVYLQMNSLKPEDTAVYYCFYSGSYYYPTDVHEYDYWGQGTQVTVSS
notes: also called DLLBII06B11; not shown: C-terminal c-myc tag and His6 tag
Consider B4, for which the “ELISA hDLL4 % inhibition” value in assay [3] was found to be 98%.

B5: DLLBII104C04 (VHH)
VHH: EVQLVESGGGLVQAGGSLRLSCAAAGSTFSSYVMGWYRQAPGKQRELVAHISTRGITYYADSVKGRFTISRDNAKNTMYLQMNSLKPEDTAVYYCNTRRNFLSNYWGQGTQVTVSS
notes: tested as periplasmic extract; also called DLLBII104C4; not shown: C-terminal c-myc tag and His6 tag
Consider B5, for which, in assay [1], the “FMAT mDLL4 % inhibition” value amounted to 83%. In addition, the “FMAT hDLL4 % inhibition” value in assay [2] amounted to 87%.

B6: DLLBII96C03 (VHH)
VHH: EVQLVESGGGLVQPGGSLRLSCAASGFTFGNYDMSWVRQAPGKGPEWVSAINSGGGDTYYADSVKGRFTISRDNAKNTLYLQMNSLKPEDTAVYYCATPRGWGPTGPHEYGYWGQGTQVTVSS
notes: also called DLLBII96C3; DLLBII96CO3; not shown: C-terminal c-myc tag and His6 tag
As to B6, the “FMAT mDLL4 % inhibition” value in assay [1] worked out at 83%. In assay [2], the “FMAT hDLL4 % inhibition” value turned out to be 75%.

B7: DLLBII112E07 (VHH)
VHH: EVQLVESGGGLVQAGGSLRLSCAASGRTVRSYATGWFRQAPGKEREFVAALRWSIGSIASVYYDDSVKGRFTISGDNAENTVYLQMNALKPEDTAIYYCASTTRGRYSALSASAYDYWGQGTQVTVSS
notes: tested as periplasmic extract; also called DLLBII112E7; not shown: C-terminal c-myc tag and His6 tag
For the molecule B7, in assay [1], the “FMAT mDLL4 % inhibition” value is 85%. In addition, the “FMAT hDLL4 % inhibition” value in assay [2] amounted to 80%.

B8: DLLBII112A03 (VHH)
VHH: EVQLVESGGGLVQPGGSLRLSCAASGIRFSINGMGWYRQAPGKQREAVATITRGGIRDYTDSVKGRFTISRDIARNTVYLQMNNLKPEDSAVYYCNIDIYWGRGTQVTVSS
notes: tested as periplasmic extract; also called DLLBII112A3; not shown: C-terminal c-myc tag and His6 tag
In the case of B8, the “FMAT mDLL4 % inhibition” value in assay [1] worked out at 97%. Also, the “FMAT hDLL4 % inhibition” value in assay [2] was found to be 72%.

B9: DLLBII61F05 (VHH)
VHH: EVQLVESGGGLVQPGGSLRLSCTASGFTFSSYAMSWVRQAPGKGLEWVSFINKDGSDTGYADSVKGRFTISRDNAKNTMYLQMNSLKPEDTAVYFCETRTSRSPRPRGQGTQVTVSS
notes: tested as periplasmic extract; also called DLLBII61F5; not shown: C-terminal c-myc tag and His6 tag
As for B9, the “FMAT mDLL4 % inhibition” value in assay [1] stood at 76%. For the same molecule, the “FMAT hDLL4 % inhibition” value in assay [2] came to 74%.

B10: DLLBII8A09 (VHH)
VHH: EVQLVESGGGLVQPGGSLRLSCAASGFTLDYYNIGWFRQAPGKEREWVSCINSSDGSTYYADSVKGRFTISRDNAKNTVYLQMNSLKPEDTAVYYCAAPFAYYSNLCGVNGYDYWGQGTQVTVSS
notes: also called DLLBII08A09; not shown: C-terminal c-myc tag and His6 tag
As for B10, the “ELISA hDLL4 % inhibition” value in assay [3] was 96%.

B11: DLLBII107C03 (VHH)
VHH: EVQLVESGGGLVQPGGSLRLSCEVSGSIGSVSDMRWYRQAPGLQYELVARITSGSITDYSDSVKGRFTISRDNAKNTVYLQMNSLKPEDTAVYYCNADVQHSAWLKPLTYWGQGTQVTVSS
notes: tested as periplasmic extract; also called DLLBII107C3; not shown: C-terminal c-myc tag and His6 tag
B11: in assay [1], the “FMAT mDLL4 % inhibition” value turned out to be 80%. For the same molecule, in assay [2], the “FMAT hDLL4 % inhibition” value stood at 75%.

B12: DLLBII104B05 (VHH)
VHH: EVQLVESGGGSVQAGGSLRLSCAASGSISRIDVMAWYRQAPGKERELVASISSGGSTNYADSVKGRFTISREYFKNMMYLQMNSLKFEDTAVYYCNADSRRGGVGNFFRSWGQGTQVTVSS
notes: tested as periplasmic extract; also called DLLBII104B5; not shown: C-terminal c-myc tag and His6 tag
Consider B12, for which the “FMAT mDLL4 % inhibition” value in assay [1] amounted to 78%. Also, the “FMAT hDLL4 % inhibition” value in assay [2] was found to be 86%.

B13: DLLBII80E08 (VHH)
VHH: EVQLVESGGGLVQAGGSLTLSCAASGGTFTTYAMGWFRQAPGKEREFVAAVSRFGVSWDYADSVKGRFTISRDNTANTLKLRMNSLKADDTAVYYCAAGGRSFLPFVPAYWGQGTQVTVSS
notes: tested as periplasmic extract; also called DLLBII80E8; not shown: C-terminal c-myc tag and His6 tag
Take B13: the “FMAT mDLL4 % inhibition” value in assay [1] was 82%. Also, the “FMAT hDLL4 % inhibition” value in assay [2] worked out at 71%.

B14: DLLBII102F08 (VHH)
VHH: EVQLVESGGGLVQTGDSLRLSCAASGSTFSNYRMGWFRQGPGKEREFVAAIGRNGQNTYYTDSVKGRFTVTRDNAKNMVYLQMNSLKPEDSAVYTCAASLRGWDTTRIDYEYWGQGTQVTVSS
notes: tested as periplasmic extract; also called DLLBII102F8; not shown: C-terminal c-myc tag and His6 tag
As for B14, the “FMAT mDLL4 % inhibition” value in assay [1] was determined as 75%. The “FMAT hDLL4 % inhibition” value in assay [2] amounted to 85%.

B15: DLLBII7B05 (VHH)
VHH: EVQLVESGGGLVQAGGSLRLSCAASGFALDYYAVGWFRQAPGKEREGVSCISSRGGSTFYADSVKGRFTTSRNNAKNTVYLQMNSLKPEDTAVYYCAAHPLQNCCGGSAYASPEAVYEYWGQGTQVTVSS
notes: also called DLLBII07B05; DLLBII7B5; not shown: C-terminal c-myc tag and His6 tag
For B15, the “ELISA hDLL4 % inhibition” value in assay [3] was 84%.

B16: DLLBII61F07 (VHH)
VHH: EVQLVESGGGLVQAGGSLRLSCAASGRTFSRYAMGWFRQAPGKEREFVAAINWSGGSTYYADSVKGRFTISRDNAKNTVYLQMNSLKPEDTAVYDCAASNYYSVYDDRPVMDYWGQGTQVTVSS
notes: tested as periplasmic extract; also called DLLBII61F7; not shown: C-terminal c-myc tag and His6 tag
With B16, the “FMAT mDLL4 % inhibition” value in assay [1] came out at 77%. For the same molecule, the “FMAT hDLL4 % inhibition” value in assay [2] turned out to be 79%.

B17: DLLBII112A04 (VHH)
VHH: EVQLVESGGGLVQAGGSLRLSCAAFGRTPYGMGWFRQAPGKEREFVAAITSDGSTNYADSVKGRFTISRDNAKNAVSLQMNSLKPEDTAVYYCTAPYYSDFEGTTTEYDYWGQGTQVTVSS
notes: tested as periplasmic extract; also called DLLBII112A4; not shown: C-terminal c-myc tag and His6 tag
As for B17, the “FMAT mDLL4 % inhibition” value in assay [1] turned out to be 90%. For the same molecule, the “FMAT hDLL4 % inhibition” value in assay [2] came to 75%.

B18: DLLBII5B11 (VHH)
VHH: EVQLVESGGGLVQPGGSLRLSCAISGFTLDLHVIGWLRQAPGKEREWVSCISSSDGSTYYADSVKGRFTISRDNAKNTVYLQMNSLKPEDTAVYYCAAPWDSWYCGIGNDYDYWGQGTQVTVSS
notes: also called DLLBII05B11; not shown: C-terminal c-myc tag and His6 tag
Turning to B18, the “ELISA hDLL4 % inhibition” value in assay [3] is 98%.

B19: DLLBII104A03 (VHH)
VHH: EVQLVESGGGLVQAGGSLRLSCAASGDIPRIAAMGWYRQAPGKQRELVATVSNAATTRYADSAKGRFTISRDNAKTVSLQMDNLKPEDTGVYYCYSLATTVTPSWVNYWGQGTQVTVSS
notes: tested as periplasmic extract; also called DLLBII104A3; not shown: C-terminal c-myc tag and His6 tag
As for B19, in assay [1], the “FMAT mDLL4 % inhibition” value stood at 83%. Further, the “FMAT hDLL4 % inhibition” value in assay [2] came out at 86%.

B20: DLLBII62C11 (VHH)
VHH: EVQLMESGGGLVQPGGSLRLSCVAAGFTFSNYYMSWVRQAPGKGLEWVSVISPDGSNTYYADTVKGRFTISRGNAKNTLFLQMTGLKSEDAAVYYCARGSGSWGVHGQGTQVTVSS
notes: not shown: C-terminal c-myc tag and His6 tag
As for B20, the “FMAT mDLL4 % inhibition” value in assay [1] came out at 71%. The “FMAT hDLL4 % inhibition” value in assay [2] is 74%.

B21: DLLBII8C11 (VHH)
VHH: EVQLVESGGGLVQAGGSLRLSCAASGFTFDDYAIGWFRQAPGKEREGVSCISSHDRTTYYADSVKGRFTISSDNAKNTVYLQMNSLKPEDTAVYYCAADPLVCGYNDPRLADYWGQGTQVTVSS
notes: also called DLLBII08C11; not shown: C-terminal c-myc tag and His6 tag
For B21, in assay [3], the “ELISA hDLL4 % inhibition” value was 57%.

B22: DLLBII58A11 (VHH)
VHH: EVQLVESGGGLVQAGGSLRLSCTTSERTVSRYSMGWFRQAPGKEREAVATISWSGDSTYYADSVKGRFTISRDNTKNTLYLQIDSLKPEDTAVYYCVAKPNLKYGSYWPPRGYDYWGQGTQVTVSS
notes: tested as periplasmic extract; not shown: C-terminal c-myc tag and His6 tag
Take B22: in assay [1], the “FMAT mDLL4 % inhibition” value was 73%. Further, the “FMAT hDLL4 % inhibition” value in assay [2] is 95%.

B23: DLLBII101H09 (VHH)
VHH: EVQLVESGGGLVQPGGSLRLSCAASGFTLGYYTIVWFRQAPGKERKGVSCISSRDGSRYYADSVKGRFTISRDNAKNTVYLRMNSLKPEDTAVYYCAAGPDCSSYDYWGQGTQVTVSS
notes: tested as periplasmic extract; also called DLLBII101H9; not shown: C-terminal c-myc tag and His6 tag
As for B23, the “FMAT mDLL4 % inhibition” value in assay [1] was 75%. Further, the “FMAT hDLL4 % inhibition” value in assay [2] came to 87%.

B24: DLLBII47D01 (VHH)
VHH: EVQLVESGGGLVQPGGSLRLSCAASGFTFDDYAIGWFRQAPGKEREGVSCISSSGSTYYADSVKGRFTISRDNAKNTVYLQMNSLKPEDTAVYYCAIAGASSWCFPPGYWGQGTQVTVSS
notes: tested as periplasmic extract; also called DLLBII47D1; not shown: C-terminal c-myc tag and His6 tag
As for B24, the “FMAT hDLL4 % inhibition” value in assay [2] is 87%.

B25: DLLBII95F02 (VHH)
VHH: EVQLVESGGGSVQAGGSLRLSCAASGRTFSSYAMGWFRQAPGKEREFVAAINWSGGYTYYADSVRGRFTISRDNAKNTVYLQMNSLKPEDTAVYYCAAPAPGSSGYEYDYWGQGTQVTVSS
notes: tested as periplasmic extract; also called DLLBII95F2; not shown: C-terminal c-myc tag and His6 tag
In the case of B25, the “FMAT mDLL4 % inhibition” value in assay [1] amounted to 71%. Besides, the “FMAT hDLL4 % inhibition” value in assay [2] was determined as 81%.

The record behind these values is patent US20110195494A1 (Boehringer Ingelheim, published 2011).
